Results reported in the DeepSol protein solubility set.

assay: soluble on expression in E. coli; label from the status in PepcDB or PDB records

Question: For “MSLSTTPGLYAVIKLTHLYLPGTLKIHHLKGQLLDQFSIGEMEYQHQGTKIKIFNLAVNWRFSSLLHKKLPIDSMSAEMIEINQKTPMLILKNIKLSGYLNQQSIKLNTLQFNYWNQLITSQLELSNSFPHVFSGKIRLNPHSTNKNIFSGGVDIGGNRNQIQWGGEFEGPGKITINGSLQQLKQIKQIIKWRDLHWQDNKNHNLKSSQGRIEVSGTIPNLAIDLKSKLGIDQLKNWQMNAAIKGKLPWQWNINATFSQPLDFSSKLDGLYTKFALKMETKNDHHADFLITIAPGHYQMTENNLMPLIQFTGGNIKGSLSQKQFSGQGVLFLDAYKKVNFNFKFPEFNVYQDIAQQTIDAKLSILFNSLDFLQNASPYLINPKGQFLASIHAKGTLNKPIIESKLALNKGSFNIPALGLNITDMVLAVFSKKDGWEATGSIHSSEKKLTLKGQGIFNKELGGTVSIEGSNFPIANNKEFQVNISPQLQVRFTPSLCQITGTIQIPNAHIKPQTFTNSLVATDDIVFTSKNTQPITPLFNTNMSVRVEMGEEVELTFKGLHAYLAGIVTINQLSQGPITANGELTVRKGEYKAYGQDLSIEQGQLIFTGGRIDNPEINLRASKNISNSFGSVSGSSELFNFNNYNNLNVGNNFNVGVEVAGRLQSPKIQLFSNPPTLSQADILSFLVIGRPANQADKAKGQLLLTAISSMNLGTGTNGTQLLEQLKQKLGFDFNVQTTTNFNQQTNKISESTGVVVGKSLSDRIYLSYNVGLSQTDPNVLTLKYILNKFLSIQVSSSDSGNGVDILYTKSTSSPEEGHHHHHH”, which “soluble on expression in E. coli” value is on record?
Answer: not soluble

Question: Which “soluble on expression in E. coli” value does the source give for “MGSDKIHHHHHHETLRAFQRKAYESTEKTNCVCFFIQEALEIAENLEHLATDPNYQKPPLFGVPVSIKESIHVKNLDSTAGYAQKINNPSDANSVSVDQLIRLGAVPFVHTNIPIALLSYGCSNGVYGTTLNPLDNSRVPGGSSGGEAALVSLGGSVLGIGTDVGGSIRTPASFCGLAGFKSSSDRSPQLGKTASIPGRQLLLSVEGPIAKNIDVCVEYLRLKWNDPLLYKKDVYMPPVKFQENLYNSEKPLKIGYYTFDGYQTASPAYQRAVRETVAVLKELGHELVPFEVPQPDHMYSIFCAGATADGGLYLMDSLANDIIPPEADIGFPVAKLPHFIQRLLRKYWHHRRERQIIQELPHDTEEMRQMHEKIEDYRHEFVLAMRAKKLDALVCPAFGCPPPHHGMPNKILGANSYPALYNLIDFAAGTVPVTVQKQEDEVELRKMKTEDSWDRRVVTESKNCIGLPVSVQIATPPYREEMCLRLLKQVEAKIGLYSRTH” here?
Answer: not soluble

Question: For “MSLSDQPVLFSRAAASCRLTLNREDKCHAINEEMIESLDHYLNEIENDTALRLVELTATGDKFFCAGGDIKSWSAYSPLDMGRKWIKRGNDVFNRLRNLPQLTVANLNGHTIGGGIELALCCDIRIARPHAKFSNPEVMLGMVPGWMGIERVLNQVGPVVGRQMLMLGKRLTAQEAQAANLIDEVVEKEQVESWMANQLAQLEKCGPVALAHIKQLILALENKHADYSHQLLAGLMSATQDCQQATHAFAEKAGVSFHNQEGHHHHHH”, which “soluble on expression in E. coli” value is on record?
Answer: soluble

Question: For “MAHHHHHHMRRWLRNVRGGLLHPRAARLMVSCGKTHGLHMVSTVSRNTETEDEEIRDNESFPHQDDDDESVTEISEEMMRSLPKAPPKLRSAGSLLSTEEQEQLTRMIFKAHYAGEGMGENDRAMWYQSALEIHWLEEWAYEEFDGQTQRDVARRAVKKAVLQRVDLHKPLAYIIGHQPFYGCDIRCSPPLLCPRPETEMWTHWLVRTWLSKIPETTQPLRVLDMCCGTGCVGIAIAKHVPSAQVTAVDILDEAIGASEENAKLNGLEASRFCTLKSDMFESFLVSNSGSLTGEDTKLDLKKKEPAAEHAGSFDIIVSNPPYVLPDQYTDLPPGIKLWESKLALVGDEKREQQQYLYFQELSEFGSLLLKPKAMRNPALCAAPNIVIEVGLQAEQVASVMEKSKLWENVEIHLDYAQQMRWITASSSH”, which “soluble on expression in E. coli” value is on record?
Answer: not soluble

Question: For “MGSDKIHHHHHHMSETEDSIVGIKDKELKMIRKILNRYEMKLVDIKKIRSIYKIKTENSTVCLKKVSHEFKKVENGNYLVRELKKNNFNNIADYISTKDGKLIVFYKNLAFYLTEWVDGEECNLNDINEAINASKLLAKFHLATQNINFHKIKLKNNNSKNWVEIFAKCLRDMESFKSIIQNKRIKNKFDFMYEDLIESYYNRGLFSIKILNESSYFKIIKGSNNKKTVCHNSFYYQNIIKGKKDYYIIHLNSIIIDLPITDLCKMIRTLMTKKEYMWNFEKAKQIIQAYNSVNKLSKDEMEVMLALIAFPHKFWKLGKKRYVRHKNWSENKYINKLNKIVLNNKCEQSFIEEYISYLDDIKEFTNFN”, which “soluble on expression in E. coli” value is on record?
Answer: not soluble

Question: For “MGSDKIHHHHHHMKNNNPPALGQKENAKHGEVFFPVQKYITRLAADYPVITTHWHDEAELTLITKGSCTYQIDLLEYEAKEGDIIFIPPLLLHSISIRDCDEFYSETYVFHINFLGGNNTDICSSRYLTPLINHEFAMPYLIAPKHPAYSSLCKCFMRITNLYSRQEFAYELALKAFLLQAIFLLLQYSEKNADFGVNTSSDKLKNVLDYIDVHYAESIQVAELAGLCYFSEYHFMRFFKKHMNMTCVQYINNVRLEKSVEQFERGNTSILDVSLSVGFHNLSYFHRAFKKRYHMTPLSFIKSLE”, which “soluble on expression in E. coli” value is on record?
Answer: not soluble

Question: For “GPLGSKEQGVVRKAGWLFFKPLVTLQKERKLELVARRKWKQYWVTLKGCTLLFYETYGKNSTEQNSAPRCALFAEDSIVQSVPEHPKKEHVFCLSNSCGDVYLFQATSQTDLENWVTAIHSACASLFAKKHGKEDTVRLLKSQTRSLLQKIDMDSKMKKMAELQLSVVSDPKNRKAIENQIRQWEQNLEKFHMDLFRMRCYLASLQGGELPNPKSLLAATSRPSKLALGRLGVLSVSSFHALVCSRDDSTLRKRTLSLTQRGK”, which “soluble on expression in E. coli” value is on record?
Answer: soluble

Question: Which “soluble on expression in E. coli” value does the source give for “MGSDKIHHHHHHMNIKDLKYFYHLSQLQSFTKVAEKFQISQPSVSYSVKRLEEQFNCDLIVKDPSHRTFALTQQGNILKRHLERILPEISSAQKEMNRSLAHYSTLGCPPIIINYLLSLLKETNQDLAFLKRIRSIRGGSVELLEQLLQGDLDLSLIGTIEPFYHDELVIKKILHRKLYLIVSKDHLLAKRKKAIAFADVLKENFILLDEHNIHLKAFDYLNQTHQNQAQIFFKSDDVTLIKQMVSHNMGVSLLTDISLTKQDHHLVKIPFKENNKLGFYVNYAYLKSSTLTPDIRHLVDLLDKIAQSF” here?
Answer: not soluble

Question: With “MIHEITLDGKIVRYKVVEKPVKYVTLRFLEDGTLLVVTPSKEIVREVLIKKRNWILSKLSIIEEAKELAGEGFPLFGRFYSLEIGEKFEIDDKNRIIIYPGIDVLRDWIKKEVKRRAQEISKEFGVAPKRIYVRVMKTKWGSTTWRKSVTLNLSSVALPEELFHYLVIHELAHLIELNHSKRFWSIVARYHPDYKEKRRELKKWWFIVHLNETWRAILQWPGGGSSSSWALEHHHHHH” as the sequence, how does the “soluble on expression in E. coli” value read?
Answer: soluble

Question: With “SDSPEQESADDALKRIVDGFQHFRREVFPEQQALFKKLANSQRPRAMFITCADSRIVPELITQSSPGDLFVTRNVGNVVPPYGQMNGGVSTAIEYAVLALGVHHIIVCGHSDCGAMRAVLDPQTLERMPTVKAWLRHAEVARTVVADNCDCGASHDTLGVLTEENVVAQLDHLRTHPSVASRLASGQLFIHGWVYDIESAQIRAYDAKQGRFLPLDGEHPVPMATPAPRYLSS” as the sequence, how does the “soluble on expression in E. coli” value read?
Answer: not soluble

Question: Which “soluble on expression in E. coli” value does the source give for “MSLLMIIDCHGHYTVLPKAHDEWREQQKAAFKAGQPAPPYPEISDDEIRETIEANQLRLIKERGADMTIFSPRASAMAPHVGDQSVAVPWAQACNNLIARVVDLFPETFAGVCMLPQSPEADMTSSIAELERCVNELGFIGCNLNPDPGGGHFKHPPLTDRFWYPFYEKMVELDVPAMIHVSGSCNPAMHATGAYYLAADTIAFMQLLQGNLFADFPTLRFIIPHGGGAVPYHWGRFRGLADMLKQPSLDTLLMNNVFFDTCVYHQPGINLLADVIDNKNILFGSEMVGAVRGIDPTTGHYFDDTKRYIDALDISDQERHAIFEGNTRRVFPRLDAKLKAREGHHHHHH” here?
Answer: soluble

Question: With “MITISNEDNMILMSRYPDKYFDLAIVDPPYGILNKTKRGGDYKFNMNEYSQWDIKPDQTYFNELFRVSKNQIIWGGNYFGELWLRSEYNKGFIIWDKNQPETLNNFSMAEMAWSSFDRPSKIFRFSVRKNRNKTHPTQKPVELYQWLLKMYAKQGDKILDTHLGSGTLAIACCIAQFDLTACEINSDYYQQSIEKIKNNLPEARISFGHPGYCIIE” as the sequence, how does the “soluble on expression in E. coli” value read?
Answer: not soluble

Question: For “SYDSPDYTDESCTFKISLRNFRSILSWELKNHSIVPTHYTLLYTIMSKPEDLKVVKNCANTTRSFCDLTDEWRSTHEAYVTVLEGFSGNTTLFSCSHNFWLAIDMSFEPPEFEIVGFTNHINVMVKFPSIVEEELQFDLSLVIEEQSEGIVKKHKPEIKGNMSGNFTYIIDKLIPNTNYCVSVYLEHSDEQAVIKSPLKCTLLPPGQESEFS”, which “soluble on expression in E. coli” value is on record?
Answer: soluble

Question: Which “soluble on expression in E. coli” value does the source give for “MAHHHHHHMKEKYTITPLARRTPNGVLTQVLTEARREAAERLRGMQEMKFTICTDIEEVLFKGRVHVNEMRLNDFLTREPDGRGVVDTNRDVLLEEFFKDPTKYIRDKGALNEIQAFGHYLSMKRAVKGEVIFDEDIRELCDRVSTTYRGGHWLLRR” here?
Answer: not soluble

Question: For “LNAAMNLKREFVHRVQRFVVNPIGRQLPMTMLETIGRKTGQPRRTAVGGRVVDNQFWMVSEHGEHSDYVYNIKANPAVRVRIGGRWRSGTAYLLPDDDPRQRLRGLPRLNSAGVRAMGTDLLTIRVDLD”, which “soluble on expression in E. coli” value is on record?
Answer: soluble

Question: Which “soluble on expression in E. coli” value does the source give for “MGSDKIHHHHHHMKKLHGFENEYLFVLPPVILNNFNFSKVIKLLYITDLGFYPKARYHFVHRDRGTEEWILIFCTHGKGVVKSATEEWLIESGSIVLLPPGKEHTYYAFDDDPWDIFWAHFNGDSVNEYIPQEALQGNGFLVINKTSTEDMQMLMSQFWQMIQALSAGFSYQSVFYSSQVLGATLAYVSLQSVLPHDSYTMGNEYITKAVKYIYDHFEEKVSLSTLTEVLDVSKSYLSRIFRQTVGTSVNQFILDIKMKQACYYLKDTNLAVHQIASRLGYDDPYYFSRIFKKVVGSSPRVFRKQEKNRL” here?
Answer: not soluble

Question: With “GPGSMPVANEASSFNVLYALNKCNPKRRRWMNGWLYVNFDRATLVDGISRKAVGVVSGTGLLPNKVFKMMVEADNGAAWEMGTEVVIGQYITQIEGTTRLHLIPYTLFSGVDCIDDNAAEEVSSVELAGSSMTSRVVNVTAGFSATRADAPLSRRKTTEQLISELRGAYPQIFI” as the sequence, how does the “soluble on expression in E. coli” value read?
Answer: not soluble

Question: For “MGHHHHHHSHMRGRIYLEPPTMRKKRLLDRKVLLKSDSPTGDVLLDETLKHIKATEPTETVQTWIELLTGETWNPFKLQYQLRNVRERIAKNLVEKGILTTEKQNFLLFDMTTHPVTNTTEKQRLVKKLQDSVLERWVNDPQRMDKRTLALLVLAHSSDVLENVFSSLTDDKYDVAMNRAKDLVELDPEVEGTKPSATEMIWAVLAAFNKS”, which “soluble on expression in E. coli” value is on record?
Answer: not soluble

Question: For “MSLSIVEPDLENCFRILIATDNHIGYAEKDPVRGQDSINTFREILELARDHDVDFILLAGDLFHENRPSRTCMHQTIALLREFTLGDKPIEFELLSDPMDGSTPGFSFPAVNYEDPNINIAIPVFSIHGNHDDPQGTGPEGALCALDVLSVSGVLNYFGKSDLVADENAADNPEKGIQIRPVLLRKGTTHVALYGCGNIRDQRMYQELRANKVKMFMPTGGNVPDSEWFNILLVHQNRVRHGPQNYVPENMFDDSMRLVIWGHEHDCRITPESVADKSYFITQPGSSVATSLAPGEAIPKHVGLLSIQGSQFQLEEIPLKTVRPFELDEVVLSYAAEQGAVDLNDRDSITSFLREQVEALILQAKKEGHHHHHH”, which “soluble on expression in E. coli” value is on record?
Answer: not soluble

Question: For “MVEINLRELKKYANPFFLTIRKDKILVNNKRMARLSRTKMDKIEEEFGIPVIYSKTYEYVSTKVGRFINKHKIIAPRDIVIVGLSGGKDSLLLLHLLEVYRRKYGIKLIAVTVDVNIGGIRPWKEDTEGVKLIKHHCEMLNVPHIILKNDLDVVELSEILTKHSKGMEFSPCFSCSVIKRHLLGKLAKEIAENENIPYEKVKLAYGHNLDDNSDTILANIFKGERLKFMRPLTRFKYNEVDYQSFKIPLEECIIIRPMLPILERDIIKALEECGIEYYKDKDMCPYSRDRGDSVRRRCHEILEKLEEEIPNIREMVVSSALKTVEYYSKNPYGEDNL”, which “soluble on expression in E. coli” value is on record?
Answer: soluble
